# B1: [PIN+] prion protein RNQ1 (Saccharomyces cerevisiae), P25367 (parent)
# chain: MDTDKLISEAESHFSQGNHAEAVAKLTSAAQSNPNDEQMSTIESLIQKIAGYVMDNRSGGSDASQDRAAGGGSSFMNTLMADSKGSSQTQLGKLALLATVMTHSSNKGSSNRGFDVGTVMSMLSGSGGGSQSMGASGLAALASQFFKSGNNSQGQGQGQGQGQGQGQGQGQGSFTALASLASSFMNSNNNNQQGQNQSSGGSSFGALASMASSFMHSNNNQNSNNSQQGYNQSYQNGNQNSQGYNNQQYQGGNGGYQQQQGQSGGAFSSLASMAQSYLGGGQTQSNQQQYNQQGQNNQQQYQQQGQNYQHQQQGQQQQQGHSSSFSALASMASSYLGNNSNSNSSYGGQQQANEYGRPQQNGQQQSNEYGRPQYGGNQNSNGQHESFNFSGNFSQQNNNGNQNRY
# partner: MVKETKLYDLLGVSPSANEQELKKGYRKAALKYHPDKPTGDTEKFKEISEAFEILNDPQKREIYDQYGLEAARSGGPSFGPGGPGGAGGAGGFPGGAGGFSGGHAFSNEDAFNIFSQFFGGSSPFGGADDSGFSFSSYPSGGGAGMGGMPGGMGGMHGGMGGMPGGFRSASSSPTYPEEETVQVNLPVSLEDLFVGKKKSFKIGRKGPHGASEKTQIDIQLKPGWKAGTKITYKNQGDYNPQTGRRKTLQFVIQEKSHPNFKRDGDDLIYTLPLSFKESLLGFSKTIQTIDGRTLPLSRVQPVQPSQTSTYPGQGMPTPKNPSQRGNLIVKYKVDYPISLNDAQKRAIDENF
# Variants of: B1
# Conditions: with sis1_yeast SIS1, P25294
row,Variant,effect of a mutation on the interaction
1,L94A,decreasing interaction

# — IntAct's records for PubMed 18480252
